Data taken from patent US9187525B2, “Methods of treating ophthalmic diseases using NPR-B agonists” (Shire Orphan Therapies GmbH, dated 2015).
Numbered stars: 1 amine (or outer) side, 2 acyl side, 3 side chain; on linkers, the order of the positions; unused ones are H or OH. Square brackets hold non-standard residues; d marks the D form. Ends that are not written are not given here. * marks the point of attachment. Pro(trans-4-NH2) = O=C([C@@H]1C[C@@H](N[*:3])CN1[*:1])[*:2]; Sni = (S)-nipecotic acid, O=C([C@H]1CCCN([*:1])C1)[*:2]; cPrCO(1-aminomethyl) = O=C(C1(CN[*:1])CC1)[*:2]; Hyp = O=C(O)[C@@H]1C[C@@H](O)CN1; dTle = CC(C)(C)[C@@H](N)C(=O)O; NMeL = CN[C@@H](CC(C)C)C(=O)O; Chg = N[C@H](C(=O)O)C1CCCCC1; NMeK = CN[C@@H](CCCCN)C(=O)O; orn(Me2) = not defined here; Nle = CCCC[C@H](N)C(=O)O; Octanoyl = CCCCCCCC(=O)*; dAbu = CC[C@@H](N)C(=O)O; 1270 = not defined here; 1860 = not defined here; 2797 = not defined here; 3806 = not defined here; 4956 = not defined here; 504 = not defined here; 559 = not defined here; 565 = not defined here; 933 = not defined here; leu = not defined here; Ac3c = NC1(C(=O)O)CC1; Occ = octanoic acid

T1: natriuretic peptide receptor-B (human)
T1 chain: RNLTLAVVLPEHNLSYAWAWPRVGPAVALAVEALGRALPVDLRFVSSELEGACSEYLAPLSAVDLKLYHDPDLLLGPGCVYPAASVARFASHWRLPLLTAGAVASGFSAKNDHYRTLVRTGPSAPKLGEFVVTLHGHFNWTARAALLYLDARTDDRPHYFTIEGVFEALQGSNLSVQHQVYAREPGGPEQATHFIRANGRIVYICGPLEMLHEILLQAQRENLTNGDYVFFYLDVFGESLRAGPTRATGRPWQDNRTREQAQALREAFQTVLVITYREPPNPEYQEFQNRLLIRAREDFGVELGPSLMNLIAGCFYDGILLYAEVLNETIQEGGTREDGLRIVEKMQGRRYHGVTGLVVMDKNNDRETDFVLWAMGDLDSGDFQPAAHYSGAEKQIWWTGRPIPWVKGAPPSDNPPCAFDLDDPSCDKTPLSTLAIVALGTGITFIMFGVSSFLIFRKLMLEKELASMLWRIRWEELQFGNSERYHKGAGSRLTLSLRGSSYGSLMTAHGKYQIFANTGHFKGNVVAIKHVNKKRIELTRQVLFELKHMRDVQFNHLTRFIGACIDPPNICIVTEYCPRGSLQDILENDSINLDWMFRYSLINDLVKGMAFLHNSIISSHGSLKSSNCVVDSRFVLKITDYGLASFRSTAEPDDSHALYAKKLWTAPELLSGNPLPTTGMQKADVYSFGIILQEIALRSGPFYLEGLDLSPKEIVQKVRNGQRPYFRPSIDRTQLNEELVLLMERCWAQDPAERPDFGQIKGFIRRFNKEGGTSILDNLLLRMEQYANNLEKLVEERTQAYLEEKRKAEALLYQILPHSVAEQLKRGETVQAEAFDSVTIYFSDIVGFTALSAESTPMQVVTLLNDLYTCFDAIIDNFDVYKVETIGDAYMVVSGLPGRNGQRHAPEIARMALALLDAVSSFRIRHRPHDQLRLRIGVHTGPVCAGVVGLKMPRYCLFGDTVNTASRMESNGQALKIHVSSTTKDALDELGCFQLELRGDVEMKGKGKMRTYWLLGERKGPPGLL

B1: JAL-0761 (peptide)
peptide: [Occ][Ac3c]FGLKLDRI-NH2
B2: JAL-0760 (peptide)
peptide: [Occ][cPrCO(1-aminomethyl)]FGLKLDRI-NH2
B3: JAL-0776 (peptide)
peptide: Octanoyl-[dA][dA]FGLK[NMeL]DRI-NH2
B4: JAL-0770 (peptide)
peptide: Octanoyl-[dA][dA]FGLKIDRI-NH2
B5: JAL-0771 (peptide)
peptide: XAAFGLKVDRI
modifications: not fully specified (residue 1, C-terminus); printed as Occ-ala-ala-Phe-Gly-Leu-Lys-Val-Asp-Arg-Ile-NH2
B6: JAL-1930 (peptide)
peptide: [Occ][Sni]F[leu]L[Hyp][NMeL]DRI-OH
modifications: reading uncertain; also: printed as Occ-Sni-Phe-leu-Leu-Hyp-Nml-Asp-Arg-Ile-OH
B7: JAL-0782 (peptide)
peptide: Octanoyl-AAFGL[NMeK]LDRI-NH2
modifications: not fully specified (some residues); printed as Occ-ala-ala-Phe-Gly-Leu-Nmk-Leu-Asp-Arg-Ile-
B8: JAL-0758 (peptide)
peptide: [Occ][dTle]FGLKLDRI-NH2
B9: JAL-0763 (peptide)
peptide: Octanoyl-[dS]FGLKLDRI-NH2
B10: JAL-1936 (peptide)
peptide: [Occ][Sni]F[orn(Me2)]L[Pro(trans-4-NH2)][NMeL]DRI-NH2
modifications: reading uncertain; also: printed as Occ-Sni-Phe-orn(Me2)-Leu-Tap-Nml-Asp-Arg-Ile-NH2
B11: JAL-0754 (peptide)
peptide: Octanoyl-[dA][dA]FGLKLDR[2797]
modifications: reading uncertain; also: printed as Occ-ala-ala-Phe-Gly-Leu-Lys-Leu-Asp-Arg-2797
B12: JAL-0791 (peptide)
peptide: Octanoyl-AAFGLKLDR[559]
modifications: not fully specified (some residues); printed as Occ-ala-ala-Phe-Gly-Leu-Lys-Leu-Asp-Arg-559; reading uncertain
B13: JAL-0769 (peptide)
peptide: Octanoyl-[dA][dA]FGLKLDRI-NH2
modifications: not fully specified (some residues); printed as Occ-ala-ala-Phe-Gly-Leu-Lys-leu-Asp-Arg-Ile-NH2
B14: JAL-0751 (peptide)
peptide: Octanoyl-[dA][dA]FGLKLDR[3806]
modifications: reading uncertain; also: printed as Occ-ala-ala-Phe-Gly-Leu-Lys-Leu-Asp-Arg-3806
B15: JAL-1935 (peptide)
peptide: [Occ][Sni]F[leu]LX[NMeL]DRI-NH2
modifications: not fully specified (residue 6); printed as Occ-Sni-Phe-leu-Leu-Tap(Asp(-))-Nml-Asp-Arg-Ile-NH2
B16: JAL-0790 (peptide)
peptide: Octanoyl-AAFGLKLDR[504]
modifications: not fully specified (some residues); printed as Occ-ala-ala-Phe-Gly-Leu-Lys-Leu-Asp-Arg-504; reading uncertain
B17: JAL-0789 (peptide)
peptide: Octanoyl-AAFGLKLDR[1860]
modifications: not fully specified (some residues); printed as Occ-ala-ala-Phe-Gly-Leu-Lys-Leu-Asp-Arg-1860; reading uncertain
B18: JAL-0787 (peptide)
peptide: 1270-AFGLKLDRI-NH2
modifications: not fully specified (some residues); printed as 1270-ala-Phe-Gly-Leu-Lys-Leu-Asp-Arg-Ile-NH2; reading uncertain
B19: JAL-0772 (peptide)
peptide: Octanoyl-[dA][dA]FGLK[Chg]DRI-NH2
B20: JAL-0756 (peptide)
peptide: Octanoyl-[dV]FGLKLDRI-NH2
B21: JAL-1931 (peptide)
peptide: [Occ][Sni]F[orn(Me2)]L[Hyp][NMeL]DRI-OH
modifications: reading uncertain; also: printed as Occ-Sni-Phe-orn(Me2)-Leu-Hyp-Nml-Asp-Arg-Ile-OH
B22: JAL-1932 (peptide)
peptide: [Occ][Sni]F[leu]L[Hyp][NMeL]TRI-NH2
modifications: reading uncertain; also: printed as Occ-Sni-Phe-leu-Leu-Hyp-Nml-Thr-Arg-Ile-NH2
B23: JAL-0788 (peptide)
peptide: 4956-AFGLKLDRI-NH2
modifications: not fully specified (some residues); printed as 4956-ala-Phe-Gly-Leu-Lys-Leu-Asp-Arg-Ile-NH2; reading uncertain
B24: JAL-0786 (peptide)
peptide: 933-AFGLKLDRI-NH2
modifications: not fully specified (some residues); printed as 933-ala-Phe-Gly-Leu-Lys-Leu-Asp-Arg-Ile-NH2; reading uncertain
B25: JAL-0752 (peptide)
peptide: Octanoyl-[dA][dA]FGLKLDR[565]
modifications: reading uncertain; also: printed as Occ-ala-ala-Phe-Gly-Leu-Lys-Leu-Asp-Arg-565
B26: JAL-0762 (peptide)
peptide: Octanoyl-[dAbu]FGLKLDRI-NH2
B27: JAL-0775 (peptide)
peptide: Octanoyl-[dA][dA]FGLK[Nle]DRI-NH2
B28: JAL-0781_01 (peptide)
peptide: Octanoyl-[dA][dA]FGLPLDRI-NH2

Target: T1, natriuretic peptide receptor-B
Assay: cell-based or functional assay

B1 and B2 cannot be ordered by “EC50 group, cGMP in GTM-3 cells” value: ≤ 15 µM for the first, ≤ 15 µM for the second.

B3 and B4 cannot be ordered by “EC50 group, cGMP in GTM-3 cells” value: ≤ 15 µM for the first, ≤ 15 µM for the second.

B5 and B6 cannot be ordered by “EC50 group, cGMP in GTM-3 cells” value: ≤ 15 µM for the first, ≤ 5 µM for the second.

B7 and B8 cannot be ordered by “EC50 group, cGMP in GTM-3 cells” value: ≤ 15 µM for the first, ≤ 15 µM for the second.

B9 and B10 cannot be ordered by “EC50 group, cGMP in GTM-3 cells” value: ≤ 15 µM for the first, ≤ 1 µM for the second.

B11 and B12 cannot be ordered by “EC50 group, cGMP in GTM-3 cells” value: ≤ 5 µM for the first, ≤ 15 µM for the second.

B13 and B14 cannot be ordered by “EC50 group, cGMP in GTM-3 cells” value: ≤ 15 µM for the first, ≤ 15 µM for the second.

B15 and B16 cannot be ordered by “EC50 group, cGMP in GTM-3 cells” value: ≤ 5 µM for the first, ≤ 15 µM for the second.

B17 and B18 cannot be ordered by “EC50 group, cGMP in GTM-3 cells” value: ≤ 5 µM for the first, ≤ 15 µM for the second.

B19 and B20 cannot be ordered by “EC50 group, cGMP in GTM-3 cells” value: ≤ 15 µM for the first, ≤ 15 µM for the second.

B21 and B22 cannot be ordered by “EC50 group, cGMP in GTM-3 cells” value: ≤ 5 µM for the first, ≤ 1 µM for the second.

B23 and B24 cannot be ordered by “EC50 group, cGMP in GTM-3 cells” value: ≤ 15 µM for the first, ≤ 15 µM for the second.

B25 and B26 cannot be ordered by “EC50 group, cGMP in GTM-3 cells” value: ≤ 5 µM for the first, ≤ 15 µM for the second.

B27 and B28 cannot be ordered by “EC50 group, cGMP in GTM-3 cells” value: ≤ 15 µM for the first, ≤ 5 µM for the second.
